Values of other authors as cited in publication PMC3871196.

Target: Calmodulin (UniProt P0DP23)

## Peripherin/rds PerCter C-terminal domain (from UniProt P17810)
  Kd: 320 nM
